The record followed here is article PMC9351484.

Several values for one entry are separate records, joined by “and”; a condition that tells them apart may be missing. Identical values can stand only once.

For data set [1], the target named is TRF1 (human) (UniProt P54274). Nature of the data set: mass photometry.
The target in data set [2] is TPP1 (human). In words: native MS.
Data set [3] concerns the target TRF1 (human) (UniProt P54274). In words: native MS.
Target sequence in this assay (P54274 whole entry): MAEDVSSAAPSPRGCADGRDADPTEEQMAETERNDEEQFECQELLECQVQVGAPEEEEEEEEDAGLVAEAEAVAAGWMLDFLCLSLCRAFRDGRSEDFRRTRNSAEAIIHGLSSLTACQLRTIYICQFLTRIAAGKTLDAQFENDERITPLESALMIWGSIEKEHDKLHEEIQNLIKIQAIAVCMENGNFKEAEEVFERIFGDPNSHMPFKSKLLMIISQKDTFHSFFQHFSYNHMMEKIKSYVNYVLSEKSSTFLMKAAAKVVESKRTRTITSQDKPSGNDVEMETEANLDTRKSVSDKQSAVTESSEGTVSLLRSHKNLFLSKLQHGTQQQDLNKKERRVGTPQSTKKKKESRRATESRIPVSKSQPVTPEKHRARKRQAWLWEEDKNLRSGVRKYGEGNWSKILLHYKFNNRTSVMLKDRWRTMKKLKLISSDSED
The target in data set [4] is TRF2/Rap1 complex (human) (UniProt Q9NYB0). In words: co-sedimentation + other: mass photometry.
The target in data set [5] is TRF2/His6MBP-Rap1 complex (human) (UniProt Q9NYB0). In words: pull-down + other: mass photometry.
Data set [6] deals with POT1 (human) (UniProt Q9NUX5). Nature of the data set: native MS.
Data set [7] deals with T1, POT1;TPP1N (human;human, UniProt Q9NUX5;Q96AP0 1-634;1-251, |). In words: negative-stain EM.
The target in data set [8] is POT1;TPP1;GFP-TIN2 (human;human;human, UniProt Q9NUX5;Q96AP0;Q9BSI4-2 1-634;1-458;1-352, ||). Nature of the data set: negative-stain EM.
The target of data set [9] is T1, POT1;TPP1N. Nature of the data set: size-exclusion chromatography and negative-stain EM.

Chain of TRF2/Rap1 complex (human) (Q9NYB0 whole entry, looked up, one chain of several): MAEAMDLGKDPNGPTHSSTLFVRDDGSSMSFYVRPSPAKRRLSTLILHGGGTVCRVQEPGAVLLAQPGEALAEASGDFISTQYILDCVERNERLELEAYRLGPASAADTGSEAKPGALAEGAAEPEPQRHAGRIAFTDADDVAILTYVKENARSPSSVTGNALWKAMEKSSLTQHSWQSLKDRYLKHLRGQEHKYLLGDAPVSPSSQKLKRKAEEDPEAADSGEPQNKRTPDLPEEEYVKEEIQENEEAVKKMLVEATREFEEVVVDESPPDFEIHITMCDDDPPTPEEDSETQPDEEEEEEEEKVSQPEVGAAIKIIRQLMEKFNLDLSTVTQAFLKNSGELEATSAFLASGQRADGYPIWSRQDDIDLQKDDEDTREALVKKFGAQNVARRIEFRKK
Chain of POT1/TPP1/GFP-TIN2 complex (Q9NUX5 whole entry, looked up, one chain of several): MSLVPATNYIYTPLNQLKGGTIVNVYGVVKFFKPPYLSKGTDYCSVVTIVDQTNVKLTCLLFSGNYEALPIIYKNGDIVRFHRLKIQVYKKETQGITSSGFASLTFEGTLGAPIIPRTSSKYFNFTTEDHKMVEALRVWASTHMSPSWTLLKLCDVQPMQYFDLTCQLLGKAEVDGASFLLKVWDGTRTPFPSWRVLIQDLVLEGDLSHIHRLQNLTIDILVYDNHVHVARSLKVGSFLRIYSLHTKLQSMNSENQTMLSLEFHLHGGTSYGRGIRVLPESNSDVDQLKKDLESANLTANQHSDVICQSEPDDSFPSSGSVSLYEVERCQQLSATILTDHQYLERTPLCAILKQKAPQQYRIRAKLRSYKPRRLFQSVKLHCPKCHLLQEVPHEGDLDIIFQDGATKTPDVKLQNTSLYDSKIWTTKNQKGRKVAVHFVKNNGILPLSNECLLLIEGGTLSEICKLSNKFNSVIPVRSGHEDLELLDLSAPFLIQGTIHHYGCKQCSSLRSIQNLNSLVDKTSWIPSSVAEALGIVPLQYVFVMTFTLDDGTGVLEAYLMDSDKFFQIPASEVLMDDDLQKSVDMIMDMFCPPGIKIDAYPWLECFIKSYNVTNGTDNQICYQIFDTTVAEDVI
Chain of GFP-TIN2 (natural protein) (Q9BSI4 2-451): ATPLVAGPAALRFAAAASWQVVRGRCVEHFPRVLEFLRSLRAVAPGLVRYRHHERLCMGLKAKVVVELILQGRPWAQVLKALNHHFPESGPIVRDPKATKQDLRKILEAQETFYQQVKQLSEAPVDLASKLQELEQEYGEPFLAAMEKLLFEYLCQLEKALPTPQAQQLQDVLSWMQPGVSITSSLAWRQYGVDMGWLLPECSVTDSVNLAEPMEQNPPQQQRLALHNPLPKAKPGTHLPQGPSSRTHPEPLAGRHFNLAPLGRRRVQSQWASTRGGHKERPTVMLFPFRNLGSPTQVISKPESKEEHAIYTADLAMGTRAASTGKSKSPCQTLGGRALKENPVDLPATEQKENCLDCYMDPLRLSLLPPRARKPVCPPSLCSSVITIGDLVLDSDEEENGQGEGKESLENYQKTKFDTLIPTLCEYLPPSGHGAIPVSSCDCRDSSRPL
T1 sequence (Q9NUX5 whole entry, chain 1 of 2): as the sequence (Q9NUX5 whole entry, looked up, one chain of several) above
T1 sequence (Q96AP0 1-251, chain 2 of 2): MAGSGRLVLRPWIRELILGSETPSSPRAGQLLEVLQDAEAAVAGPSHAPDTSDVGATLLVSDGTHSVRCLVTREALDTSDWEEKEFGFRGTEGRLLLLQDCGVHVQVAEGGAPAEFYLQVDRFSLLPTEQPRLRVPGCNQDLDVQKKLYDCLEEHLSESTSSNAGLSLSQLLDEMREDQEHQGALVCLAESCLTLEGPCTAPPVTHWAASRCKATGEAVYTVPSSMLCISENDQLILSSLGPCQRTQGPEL
Chain of TRF2/His6MBP-Rap1 complex (human) (Q9NYB0 whole entry, looked up, one chain of several): as the sequence (Q9NYB0 whole entry, looked up, one chain of several) above
Chain of TRF1 (P54274 2-439): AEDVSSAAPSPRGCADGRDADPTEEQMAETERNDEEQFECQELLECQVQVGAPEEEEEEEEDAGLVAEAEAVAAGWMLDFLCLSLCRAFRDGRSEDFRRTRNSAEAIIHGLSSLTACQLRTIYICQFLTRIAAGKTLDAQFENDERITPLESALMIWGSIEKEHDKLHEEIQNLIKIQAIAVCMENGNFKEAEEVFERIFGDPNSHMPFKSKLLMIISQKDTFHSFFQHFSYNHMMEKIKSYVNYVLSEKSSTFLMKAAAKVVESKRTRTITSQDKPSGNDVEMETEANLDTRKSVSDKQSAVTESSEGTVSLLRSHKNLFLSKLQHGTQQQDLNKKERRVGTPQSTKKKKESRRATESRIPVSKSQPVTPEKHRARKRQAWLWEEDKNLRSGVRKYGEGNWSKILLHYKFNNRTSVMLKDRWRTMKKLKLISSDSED
Chain of POT1;TPP1;GFP-TIN2 (Q9NUX5 whole entry, chain 1 of 3): as the sequence (Q9NUX5 whole entry, looked up, one chain of several) above
Chain of POT1;TPP1;GFP-TIN2 (Q96AP0 whole entry, chain 2 of 3): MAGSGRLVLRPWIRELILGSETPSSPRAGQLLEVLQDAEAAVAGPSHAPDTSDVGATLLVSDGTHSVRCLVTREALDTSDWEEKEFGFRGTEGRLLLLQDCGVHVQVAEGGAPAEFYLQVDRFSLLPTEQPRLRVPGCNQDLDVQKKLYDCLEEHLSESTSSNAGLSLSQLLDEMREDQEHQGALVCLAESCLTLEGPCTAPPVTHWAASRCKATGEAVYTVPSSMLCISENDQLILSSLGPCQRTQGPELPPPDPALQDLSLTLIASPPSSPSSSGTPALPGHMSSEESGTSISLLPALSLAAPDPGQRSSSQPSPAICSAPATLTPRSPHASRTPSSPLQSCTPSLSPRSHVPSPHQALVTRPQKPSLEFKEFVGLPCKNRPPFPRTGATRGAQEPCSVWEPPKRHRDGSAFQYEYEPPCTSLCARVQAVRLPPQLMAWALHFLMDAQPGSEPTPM
Chain of POT1;TPP1;GFP-TIN2 (Q9BSI4 1-352, chain 3 of 3): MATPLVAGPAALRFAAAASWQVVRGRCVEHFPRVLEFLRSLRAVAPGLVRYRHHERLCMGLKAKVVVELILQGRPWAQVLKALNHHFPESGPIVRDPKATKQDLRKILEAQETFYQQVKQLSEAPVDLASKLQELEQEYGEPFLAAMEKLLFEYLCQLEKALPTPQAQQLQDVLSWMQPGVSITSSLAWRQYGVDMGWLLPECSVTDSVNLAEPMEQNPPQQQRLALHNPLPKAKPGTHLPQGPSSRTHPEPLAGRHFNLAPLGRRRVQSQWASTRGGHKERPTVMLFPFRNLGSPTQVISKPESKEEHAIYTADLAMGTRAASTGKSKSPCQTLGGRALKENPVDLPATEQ
Chain of POT1 (human) (Q9NUX5 whole entry): as the sequence (Q9NUX5 whole entry, looked up, one chain of several) above
Chain of POT1/TPP1/GFP-TIN2/TRF1 complex (P54274 whole entry, looked up): as the sequence (P54274 whole entry) above
Chain of POT1/TPP1/GFP-TIN2/TRF1 complex (Q9NUX5 whole entry, looked up): as the sequence (Q9NUX5 whole entry, looked up, one chain of several) above
Chain of TRF1/GFP-TIN2 complex (P54274 whole entry): as the sequence (P54274 whole entry) above
Chain of TRF1/GFP-TIN2 complex (Q9BSI4 1-352): as the sequence (Q9BSI4 1-352, chain 3 of 3) above
Chain of TPP1 (human) (Q96AP0 whole entry): as the sequence (Q96AP0 whole entry, chain 2 of 3) above
Chain of TPP1 (natural protein) (Q96AP0 whole entry): as the sequence (Q96AP0 whole entry, chain 2 of 3) above

In data set [1], GFP-TIN2 (natural protein) registered a stoichiometry N (TIN2 per TRF1 dimer) of 2. In [2], this molecule came in with a stoichiometry N (TIN2 per TPP1) of 1.
Consider “POT1/TPP1/GFP-TIN2 complex (from UniProt Q9NUX5 1-634)”, for which the stoichiometry N (POT1/TPP1/GFP-TIN2 per TRF1 dimer) in [1] is 1 and 2; in data set [3], 1 and 2. Besides, the stoichiometry N (POT1/TPP1/TIN2 per (TRF2/Rap1)2) in data set [4] was 1 and 2.
As to “POT1/TPP1/GFP-TIN2/TRF1 complex (from UniProt Q9NUX5;P54274)”, in data set [5], the stoichiometry N worked out at 1.
For the molecule TPP1 (natural protein), the stoichiometry N (TPP1 per POT1) in [6] was determined as 1.
“TRF1 (from UniProt P54274 1-439) (natural protein)” returned a stoichiometry N in data set [1] of 2.
On to “TRF1/GFP-TIN2 complex (from UniProt P54274;Q9BSI4)”, for which, in data set [4], the stoichiometry N ((TRF1/GFP-TIN2)2 per (TRF2/Rap1)2) was determined as 1.
Consider GGTTAGGGTTAGGGTTAGGGTTAG (ssDNA) [5'-biotin-(GGTTAG)4], for which the binding result in data set [7] and in data set [8] was “binds” throughout.
Take GGTTAGGGTTAG (ssDNA) [5'-biotin-(GGTTAG)2]: the binding result in data set [9] is recorded as “binds”.

The stoichiometry N is the number of molecules, sites or subunits per partner or assembly.
